Series [1] has as its system CCCCCCCCCCCCCCCC(=O)Oc1ccc([N+](=O)[O-])cc1. The series can be described thus: purified protein. The settings on record: free enzyme; emulsified substrate.
The test system of series [2] is CC(=O)Oc1ccc([N+](=O)[O-])cc1. Kind of series: purified protein. The settings on record: free enzyme; emulsified substrate.
Series [3] concerns CCCCCCCCCCCCCCCC(=O)Oc1ccc([N+](=O)[O-])cc1. The series can be described thus: p-nitrophenol release, Lineweaver-Burk. It is filed as biochemical, Rhizopus microsporus. The settings on record: RCLCYS, engineered disulfide C95-C214; free enzyme; emulsified substrate. An excerpt: (§1) p-nitrophenol release, Lineweaver-Burk on RCL (R. chinensis lipase)
Series [4] deals with CC(=O)Oc1ccc([N+](=O)[O-])cc1. Kind of series: p-nitrophenol release, Lineweaver-Burk. It is filed as biochemical, Rhizopus microsporus. The settings on record: RCLCYS, engineered disulfide C95-C214; free enzyme; emulsified substrate.
Source text: as §1

For orientation: Km means the substrate concentration at which the rate is half of its maximum. The term kcat denotes the maximal rate divided by the concentration of active sites. As for “RCL (R. chinensis lipase) (Rhizopus microsporus var. chinensis)”, the Km in series [1] amounted to 304 ± 7 µM; in series [2] it was 295 ± 6 µM. In addition, the kcat in series [1] was 18.9 ± 0.4 s⁻¹; in series [2] it was 17.7 ± 0.2 s⁻¹.

For “RCL (R. chinensis lipase) (Rhizopus microsporus var. chinensis; F215C/F334C)”, the Km in series [3] came out at 450 ± 6 µM; in series [4], 298 ± 8 µM. Moreover, the values for the kcat in series [3] and in series [4] were 18.4 ± 0.2 s⁻¹ and 17.3 ± 0.2 s⁻¹, respectively.

The record behind these values is PMC3462767, “Engineering a Disulfide Bond in the Lid Hinge Region of Rhizopus chinensis Lipase: Increased Thermostability and Altered Acyl Chain Length Specificity” (PLoS ONE, 2012).
